# Residue numbers refer to the chain shown, from its start.
# T1: hIL2Rg ECD antigen (human, UniProt P31785 23-262)
# T1 construct: The immunogen was the ECD fused to human IgG1 hinge and Fc; also called ECD of IL2Rg (human); human IL-2Rγ
# T1 sequence: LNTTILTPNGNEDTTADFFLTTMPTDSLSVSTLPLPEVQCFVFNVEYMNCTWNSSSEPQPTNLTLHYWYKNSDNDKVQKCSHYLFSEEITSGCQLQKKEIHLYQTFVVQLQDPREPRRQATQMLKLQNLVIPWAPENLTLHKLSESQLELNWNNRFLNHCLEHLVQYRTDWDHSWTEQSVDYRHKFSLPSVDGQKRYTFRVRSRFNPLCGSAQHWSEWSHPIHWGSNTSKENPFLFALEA
# T2: mIL2Rb ECD antigen (murine, UniProt P16297 27-240)
# T2 construct: The immunogen was the ECD fused to human IgG1 hinge and Fc; also called ECD of IL2Rb (mouse)
# T2 sequence: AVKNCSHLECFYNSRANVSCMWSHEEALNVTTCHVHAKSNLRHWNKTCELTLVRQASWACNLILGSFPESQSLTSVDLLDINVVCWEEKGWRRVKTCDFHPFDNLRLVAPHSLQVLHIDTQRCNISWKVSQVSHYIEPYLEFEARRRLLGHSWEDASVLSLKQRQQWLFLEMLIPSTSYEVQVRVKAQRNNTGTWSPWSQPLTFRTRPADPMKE
# B1: hIL2Rg_VHH-23 (VHH)
# VHH: QVQLQESGGGLVQPGGSLRLSCAASGFSFSSYPMTWARQAPGKGLEWVSTIASDGGSTAYAASVEGRFTISRDNAKSTLYLQLNSLKTEDTAMYYCTKGYGDGTPAPGQGTQVTVSS
# notes: As a his-tagged phage clone periplasmic extract
# B2: hIL2Rg_VHH-5 (VHH)
# VHH: B1 VHH with L11S, P14A
# notes: as for B1
# B3: hIL2Rg_VHH-18 (VHH)
# VHH: B1 VHH with S28T
# notes: as for B1
# B4: hIL2Rg_VHH-2 (VHH)
# VHH: B1 VHH with L11S, Q13P, P14A, R19K
# notes: as for B1
# B5: hIL2Rg_VHH-1 (VHH)
# VHH: QVQLQESGGGSVQAGGSLRLSCAASGFTFDDSDMGWYRQAPGNECDLVSTISSDGSTYYADSVKGRFTISQDNAKNTVYLQMDSVKPEDTAVYYCAADFMIAIQAPGAGCWGQGTQVTVSS
# notes: as for B1
# B6: hIL2Rg_VHH-7 (VHH)
# VHH: B5 VHH with S11L, A14P, S32R, D33E, G35N, D46E
# notes: as for B1
# B7: DR857 (VHH)
# VHH: QVQLQESGGGLVQPGGSLRLSCAASGFTFSLYDMSWVRQAPGKGLEWVSGINSGGYSTYYAASAKGRFTISRDNAKNTLYLQLSSVKTEDTAMYYCAQRGLTSPYVIPNIRLQGTQVTVSS
# notes: as for B1
# B8: DR1452 (VHH)
# VHH: EVQLVESGGGLVQAGGALRLSCAASGRTFRRFMGWFRQAPGKEREFVAAINWPGGGTYYGDSVKGRFTISRDNAKNTVYLQMNSLKPEDTANYYCAATRKYNLYKFADWGQGTQVTVSS
# notes: as for B1
# B9: DR1461 (VHH)
# VHH: EVQLVESGGRLVQAGDSLRLSCVASGRIFNTYSMGWFRQVPGKERDFVAAIRWSGGTTYYTDSVKGRFTISRDNAKNTVYLQMKDLKPQDTAVYYCAAVPSGRSWYGRNRYWGQGTLVTVSS
# notes: as for B1
# B10: DR1465 (VHH)
# VHH: EVQLVESGGGLMQAGGALRLSCTASGPTFTSYTMGWFRQSPGKRREFVAVISKGGRTYYADSVKGRFTISRDNAKNTFYLQMSSLKPEDTAVYYCAGQRVGATSKYEYDYWGQGTQVTVSS
# notes: as for B1
# B11: DR1469 (VHH)
# VHH: EVQLVESGGGLVQPGGSLRLSCEVSGFTFSNYWMYWIRQAPGKGLEWVSHINTNGGNTYYRHSVKGRFTISRDNAKNTLYLQMNGLKSEDTAVYYCAKANSDVGLGYYGMDYWGKGTQVTVSS
# notes: as for B1
# B12: DR1462 (VHH)
# VHH: EVQLVESGGGLVQAGGSLRLSCVSSGRTFGYVAMGWFRQAPGKEREFVASINWSGGSTAYADSVKGRFTISRDNAKNTVYLQMNSLKPEDTAVYYCAGSTRFYIATMEQGSYDYWGQGTQVTVSS
# notes: as for B1
# B13: DR1470 (VHH)
# VHH: EVQLVESGGGSVQPGGSLRLSCAAPESIFNNNAVYWYRQFPGKEREYVGLITIGGRTGYADSVKGRFTISRDNANNVAFLQMDNLKPEDTAVYYCAARPGYWSSSYDYWGQGTQVTVSS
# notes: as for B1
# B14: DR1459 (VHH)
# VHH: EVQLVESGGGLVQAGGSLRLSCAASGRTISTYAMVWFRQASGKEREFVGVISRSGDRTYYADSVKGRFTISRDNLGNIVRLQLNSLKPEDTAVYYCARGGYTGIETITARGRGTLVTVSS
# notes: as for B1
# B15: DR1455 (VHH)
# VHH: EVQLVESGGGLVQTGGSLRLSCAASGRTFNSYAMGWFRQSPGKEREFVAVITWNSGRTYYADSVKGRFTISRDNAKNTVYLQMNSLKPEDTAVYYCNSAPWAHNREWGQGTLVTVSS
# notes: as for B1
# B16: DR1456 (VHH)
# VHH: EVQLVESGGGLVQAGGSLRLSCAASGLTFRTYYMSWFRQAPGKEREFVGVISWIGSTTLYADSVKGRFSISRDNAKNTVYLQMNNLKPEDTAVYYCAANFLREGKREPRYWGQGTQVTVSS
# notes: as for B1
# B17: DR1472 (VHH)
# VHH: EVQLVESGGGLVRAGDSLRLSCAVSGLASSSFFMTWFRQGQGKEREFVATISWTGRTSYYAASVKGRFTVSRDNAKNTVYLQMNSLNSEDTAVYFCAAYPRTLVRNREPIHWGQGTQVTVSS
# notes: as for B1
# B18: DR1454 (VHH)
# VHH: EVQLVESGGGLVQAGGSLRLFCASSERTFGDYPIGWFRQAPGKEREFVASISWGGSRQYYTDSVKGRFTITRDNDKNTVYLQMNSLKPEDTAVYYCWVRVRLSNTALLQRYWGQGTLVTVSS
# notes: as for B1
# B19: DR1471 (VHH)
# VHH: EVQLVESGGGLVQAGGSLRLSCVFSGRAPASYAMAWFRQAVGNEREFVAAINWSGRRTYYADSVKGRFTISKDNAQNTAYLQMTNLEPEDTATYYCNAYLSGTYYWGQGTQVTVSS
# notes: as for B1
# B20: DR1453 (VHH)
# VHH: EVQLVESGGRLVQAGDSLRLSCVASGRIFNTYSMGWFRQVPGKERDFVAAIRWSGGTTYYTDSVKGRFTISRDNAKNTVYLQMNSLKPEDTAVYYCWVRVRLSNTALLQRYWGQGTLVTVSS
# notes: as for B1
# B21: DR1448 (VHH)
# VHH: EVQLVESGGRLVQAGDSLRLSCVASGKSFSDYPLGWFRQAPGKAREYVAHISWSGKLTYYRSTVKGRFTISRDNAENKLYLQMNALKPEDTAVYYCAAMKLFNYGGRYCVLKPLTMYQQWSQGTQVTVSS
# notes: as for B1
# B22: DR1468 (VHH)
# VHH: EVQLVESGGGLVQAGGSLRLSCTTSGRTGTHYAMGWFRQAPGKEREFVSLILWNGEFTTYKDSVKGRFTISREKGENTVYLQMNSLKPEDTAVYYCYLRVFARRYWGQGTQVTVSS
# notes: as for B1
# B23: DR1466 (VHH)
# VHH: EVQLVESGGGLVRAGGSLRLSCAASGFTFSTDWMYWVRRAPGKGLEWVSLINTDGTSTSYTKSVKGRFTVSRDNAKNTLYLQMNSLKPEDTALYYCARGRTYWFYAMDYWGKGTQVTVSS
# notes: as for B1
# B24: DR1458 (VHH)
# VHH: EVQLVESGGGLVQAGGSLRLSCAASGRTLSTYAMGWFRQAPGKEREFVAAIRWASGRTYYGDSVKGRFTISRDSAKNTVYLQMNSLKPEDTAVYYCAARSRPYLNYGDFGYWGQGTQVTVSS
# notes: as for B1
# B25: DR1464 (VHH)
# VHH: EVQLVESGGGLVQAGGSLRLSCAASGRTFSSYAMGWFRQAPGKEREFVTAISRSGGYTSYADSVKGRFTISRDNAKNTVYLQMNSLKPEDTAVYYCAKLIAPFYYGMDYWTKGTQVTVSS
# notes: as for B1
# B26: DR1457 (VHH)
# VHH: EVQLVESGGRLVQAGDSLRLSCVASGRIFNTYSMGWFRQVPGKERDFVAAIRWSGGTTYYTDSVKGRFTISRDNAKNTVYLQMNSLKPEDTAVYYCYLRVFARRYWGQGTQVTVSS
# notes: as for B1
# B27: DR1450 (VHH)
# VHH: EVQLVESGGGLVQAGGSLRLSCVISGRSINYYRMGWFRQAPGNRRQFVAAIKWGGDGVYADSVKGRFTISRDNTKNTVYLQMDSLKPEDTGTYYCAKMPLSSWSRGGYLEVWGQGTLVTVSS
# notes: as for B1
# B28: DR1467 (VHH)
# VHH: EVQLVESGGGLVQAGDSLRLSCAASGRISNYAMGWFRQAPGKEREFVAVITRSGGSTYYADSVKGRFTISRDNGKNTIDLQMNRLKPEDTAVYYCAVRRSQKLVTFGAEYPWWGQGTLVTVSS
# notes: as for B1
# B29: DR1449 (VHH)
# VHH: EVQLVESGGGLVQAGGSLRLSCAASGRSFSGYAIGWFRQAPGKEREFVAVVSWRGSSTYYADSVKGRFTISRDNAKGTVYLQMNSLKPEDTAAYYCAAVPSGRSWYGRNRYWGQGTQVTVSS
# notes: as for B1
# B30: DR1451 (VHH)
# VHH: EVQLVESGGGLVQAGDSLRLSCAASERFSWGNYAMYWFRQAPGKEREFVAAIGRNSMATYYRDSAKGRFVISRDNAKNTLYLEMNALKPEDTARYYCAAKFMVADGWSRQYDYWGQGTLVTVSS
# notes: as for B1
# B31: DR1460 (VHH)
# VHH: EVQLVESGGGLVQTGDSLRLSCAAPESIFNNNAVYWYRQFPGKEREYVGLITIGGRTGYADSVKGRFTISRDNANNVAFLQMDSLKPEDTAVYYCATGLKFGFNFYSKTAYDYWGQGTQVTVSS
# notes: as for B1
# B32: DR1463 (VHH)
# VHH: EVQLVESGGSVVQPGDSLRLACTASGRSFRSYAIGWFRQASGKERVFVAAISYDGRRTYYGRSLKDRFTISRDNAKNTVYLQMNSLKPEDTAVYYCATHRSGTMFARYGMDYWGKGTLVTVSS
# notes: as for B1
# Molecular target: T1, hIL2Rg ECD antigen
# Test: PE-ELISA of phage clones
row,Binder,binding result
1,B1,binds
2,B2,binds
3,B3,binds
4,B4,binds
5,B5,binds
6,B6,binds

# Molecular target: T2, mIL2Rb ECD antigen
# Test: PE-ELISA of phage clones
row,Binder,binding result
1,B7,binds
2,B8,binds
3,B9,binds
4,B10,binds
5,B11,binds
6,B12,binds
7,B13,binds
8,B14,binds
9,B15,binds
10,B16,binds
11,B17,binds
12,B18,binds
13,B19,binds
14,B20,binds
15,B21,binds
16,B22,binds
17,B23,binds
18,B24,binds
19,B25,binds
20,B26,binds
21,B27,binds
22,B28,binds
23,B29,binds
24,B30,binds
25,B31,binds
26,B32,binds

# From patent US20250019453A1 (SYNTHEKINE, published 2025)
